{
  "source": "patent US8372810B2",
  "about": "“Anti-tumor drug, medicament, composition, and use thereof” (Gene Signal International SA, priority 2007, dated 2013)",
  "molecules": {"B1": {"name": "497C-T2: entire LEL domain of protein 497C, SEQ ID NO:3 (112 amino acids); as produced SEQ ID NO:8, with N-terminal His-Tag and C-terminal tail, 24 kD (protein, listed as Homo sapiens)", "chain": "MHHHHHHSSGLVPRGSGMKETAAAKFERQHMDSPDLGTDDDDKISGFVFRHEIKDTFLRTYTDAMQTYNGNDERSRAVDHVQRSLSCCGVQNYTNWSTSPYFLEHGIPPSCCMNETDCNPQDLHNLTVAATKVNQKGCYDLVTSFMETNMGIIAGDRASPQPWRYRIRILAPSTSLRPHSSTTTTTTXIRLLTKPERKLSWLLPPLSNN", "modifications": "X: residue not identified in the source"}},
  "key": {"tumor cell line Calu-6": {"tested_on": "tumor cell line Calu-6", "assay": "Proliferation of other cell lines: Calu-6", "format": "cell-based, human", "settings": "even at high concentration"}, "NCI H460 human tumor": {"tested_on": "NCI H460 human tumor", "assay": "NCI H460 human tumor xenograft in Swiss Nude mice, tumor growth", "format": "in vivo", "set-up": "key to MRTV D28 / MRTV D12 / MRTV D14 / MRTV D16 / MRTV D18 / MRTV D20 / MRTV D22 / MRTV D24 / MRTV D26: ratio of mean tumor volume at day t to volume at injection (D12)", "settings": "for MRTV D12: reference day", "procedure": "NCI H460 cells were cultured as adherent cells in complete RPMI 1640 medium (Ref. CM1RRM08-01, batch No. 623615, Eurobio, France) containing 2 mM L-Glutamine, adjusted to 4.5 g/L glucose (Ref. G7528, batch No. 033K0121, Sigma, France) and supplemented with 10 mM HEPES (Ref. H0887, batch No. 113K2338, Sigma, France), 1.0 mM sodium pyruvate (Ref. CSTVAT00-0U, batch No. 520818, Sigma, France) and 10% fetal calf serum (FCS; Ref. CVFSVF00-01, batch No. S13021, Eurobio, France) under a 37° C., 5% CO2 humidified atmosphere. They were amplified in 75 cm^2-flasks to reach 90×10^6 cells.\nAt D0, NCI H460 cells (human lung carcinoma) were collected from 75 cm^2-flasks by removing the medium and adding 3 ml of trypsine-EDTA (Ref. CEZTDA00-0U, batch No. 633920, Eurobio, France). After 5 min of incubation at 37° C., cells were detached from the plastic and the enzymatic reaction was stopped by adding 3 ml of RPMI 1640 medium containing 10% fetal calf serum. Cells were then centrifuged at 700 g for 5 min at room temperature. They were resuspended in serum-free RPMI 1640 culture medium containing L-Glutamine (2 mM), glucose (4.5 g/l), sodium pyruvate (1 mM) and buffered with HEPES (10 mM). Cells were counted and the number of viable NCI H460 cells was >99%. The number of cells was then adjusted to 25.10^6 cells/ml in serum-free medium.\nNCI H460 cells (5.10^6 cells/mouse in 200 μL of serum-free medium) were then implanted subcutaneously in the right flank of each mouse.\nAt D12 post-implantation of the NCI H460 cells, the thirty mice were randomized into six groups of 5 mice. Tumor volumes had reached 228 to 468 mm^3 and mean tumor volumes were not statistically different between groups after randomization.\nAll solutions were injected IP.\nAnimals have been observed daily.\n• Tumor growth curves were drawn using the mean tumor volumes (MTV), • Mean Relative tumor volume (MRTV) was calculated as the ratio between the MTV at time t and the volume at the time of injection (t=D12), • Tumor growth inhibition (T/C, %) was evaluated as the ratio of the median tumor volumes of treated groups versus vehicle group.\nStatistical analyses of tumor volumes (V), time to reach ‘V’, tumor-doubling time (DT), relative tumor volume (RTV) and tumor growth inhibition (T/C) were performed for all groups. Data are expressed as mean±SD. Groups of data were normally distributed. Univariate analysis were performed to assess differences between groups. Statistical significance was then determined using the Student's t test. A P<0.05 was considered as statistically significant. The Statistical analysis was performed using XLSTAT (Addinsoft, France)."}, "tumor cell line NCI-H460": {"tested_on": "tumor cell line NCI-H460", "assay": "Proliferation of other cell lines: NCI-H460", "format": "cell-based, human", "settings": "even at high concentration"}, "[1]": {"tested_on": "fibroblast cell line MRC5", "assay": "Proliferation of other cell lines: MRC5", "format": "cell-based", "settings": "even at high concentration"}, "HUVEC": {"tested_on": "HUVEC", "assay": "In vitro angiogenesis of HUVEC induced by FGF2 and VEGF on Matrigel", "format": "cell-based, human", "procedure": "The purified proteins 497C-T2, 497C-T3, 497C-T4 and 497C-T5 were tested in vitro on angiogenesis of HUVEC induced by FGF2 and VEGF on Matrigel.\n24 wells plates were prepared with 250 μL of BD Matrigel™/well and then incubated 30 minutes in incubator."}, "[2]": {"settings": "497C-T2 10 mg/kg IP Q1DX16 (G4)"}, "[3]": {"settings": "497C-T2 10 mg/kg IP Q1DX16 (G4), 10 mg/kg"}, "[4]": {"settings": "497C-T2 10 mg/kg IP Q1DX16 (G4), listed as 497C-T2-Batch A"}, "[5]": {"settings": "497C-T2 10 mg/kg IP once daily Q1DX16 (G4)"}, "[6]": {"settings": "IP Q2DX8, CDDP 5 mg/kg (G2), 497C-T2 10 mg/kg (G3), 497C-T2 10 mg/kg + CDDP 5 mg/kg (G5)"}, "[7]": {"settings": "IP Q2DX8, CDDP 5 mg/kg (G2), 497C-T2 10 mg/kg (G3), 497C-T2 10 mg/kg + CDDP 5 mg/kg (G5), listed as 497C-T2-Batch A"}},
  "data": [
    {"molecule": "B1", "values": [
      {"measurement": "anti-proliferative effect", "setting": "tumor cell line Calu-6", "value": "without any detectable anti-proliferative effect"},
      {"measurement": "MTV at D14", "setting": "NCI H460 human tumor; [2]", "value": 468.85, "unit": "mm^3"},
      {"measurement": "MTV at D24", "setting": "NCI H460 human tumor; [2]", "value": 2289.22, "unit": "mm^3"},
      {"measurement": "T/C at D14 (treated/vehicle tumor volume ratio)", "setting": "NCI H460 human tumor; [2]", "value": 46.90, "unit": "%"},
      {"measurement": "T/C at D24 (treated/vehicle tumor volume ratio)", "setting": "NCI H460 human tumor; [2]", "value": 71.04, "unit": "%"},
      {"measurement": "DT (doubling time of tumor volume)", "setting": "NCI H460 human tumor; [3]", "value": "5.9 ± 1.21", "unit": "days"},
      {"measurement": "MTV at D28", "setting": "NCI H460 human tumor; [3]", "value": "3167±1681", "unit": "mm^3"},
      {"measurement": "T/C at D28 (treated/vehicle tumor volume ratio)", "setting": "NCI H460 human tumor; [3]", "value": 71, "unit": "%"},
      {"measurement": "DT (doubling time of tumor volume)", "setting": "NCI H460 human tumor; [4]", "value": 5.9, "unit": "days"},
      {"measurement": "MTV at D28", "setting": "NCI H460 human tumor; [4]", "value": 3167.34, "unit": "mm^3"},
      {"measurement": "T/C at D28 (treated/vehicle tumor volume ratio)", "setting": "NCI H460 human tumor; [4]", "value": 71.32, "unit": "%"},
      {"measurement": "MRTV D14", "setting": "NCI H460 human tumor; [5]", "value": 1.08},
      {"measurement": "MRTV D16", "setting": "NCI H460 human tumor; [5]", "value": 1.00},
      {"measurement": "MRTV D18", "setting": "NCI H460 human tumor; [5]", "value": 1.69},
      {"measurement": "MRTV D20", "setting": "NCI H460 human tumor; [5]", "value": 2.63},
      {"measurement": "MRTV D22", "setting": "NCI H460 human tumor; [5]", "value": 3.08},
      {"measurement": "MRTV D24", "setting": "NCI H460 human tumor; [5]", "value": 3.08},
      {"measurement": "MRTV D26", "setting": "NCI H460 human tumor; [5]", "value": 4.89},
      {"measurement": "MRTV D28", "setting": "NCI H460 human tumor; [5]", "value": 6.76},
      {"measurement": "DT (doubling time of tumor volume)", "setting": "NCI H460 human tumor; [6]", "value": "4.08 ± 1.4", "unit": "days"},
      {"measurement": "MRTV D14", "setting": "NCI H460 human tumor; [6]", "value": 1.37},
      {"measurement": "MRTV D16", "setting": "NCI H460 human tumor; [6]", "value": 1.70},
      {"measurement": "MRTV D18", "setting": "NCI H460 human tumor; [6]", "value": 2.46},
      {"measurement": "MRTV D20", "setting": "NCI H460 human tumor; [6]", "value": 2.81},
      {"measurement": "MRTV D22", "setting": "NCI H460 human tumor; [6]", "value": 3.30},
      {"measurement": "MRTV D24", "setting": "NCI H460 human tumor; [6]", "value": 3.22},
      {"measurement": "MRTV D26", "setting": "NCI H460 human tumor; [6]", "value": 5.80},
      {"measurement": "MRTV D28", "setting": "NCI H460 human tumor; [6]", "value": 7.37},
      {"measurement": "MTV at D14", "setting": "NCI H460 human tumor; [6]", "value": 571.00, "unit": "mm^3"},
      {"measurement": "MTV at D24", "setting": "NCI H460 human tumor; [6]", "value": 1955.02, "unit": "mm^3"},
      {"measurement": "MTV at D28", "setting": "NCI H460 human tumor; [6]", "value": "2482±2075", "unit": "mm^3"},
      {"measurement": "T/C at D14 (treated/vehicle tumor volume ratio)", "setting": "NCI H460 human tumor; [6]", "value": 57.12, "unit": "%"},
      {"measurement": "T/C at D24 (treated/vehicle tumor volume ratio)", "setting": "NCI H460 human tumor; [6]", "value": 60.67, "unit": "%"},
      {"measurement": "T/C at D28 (treated/vehicle tumor volume ratio)", "setting": "NCI H460 human tumor; [6]", "value": 56, "unit": "%"},
      {"measurement": "DT (doubling time of tumor volume)", "setting": "NCI H460 human tumor; [7]", "value": 4.08, "unit": "days"},
      {"measurement": "MTV at D28", "setting": "NCI H460 human tumor; [7]", "value": 2481.61, "unit": "mm^3"},
      {"measurement": "T/C at D28 (treated/vehicle tumor volume ratio)", "setting": "NCI H460 human tumor; [7]", "value": 55.88, "unit": "%"},
      {"measurement": "anti-tumoral activity", "setting": "NCI H460 human tumor; NCI H460, monotherapy (G3, G4) or combined with CDDP (G5, G6)", "value": "moderate anti-tumoral activity"},
      {"measurement": "MRTV D12", "setting": "NCI H460 human tumor; [5]", "value": 1.00},
      {"measurement": "MRTV D12", "setting": "NCI H460 human tumor; [6]", "value": 1.00},
      {"measurement": "anti-proliferative effect", "setting": "tumor cell line NCI-H460", "value": "without any detectable anti-proliferative effect"},
      {"measurement": "anti-proliferative effect", "setting": "[1]", "value": "without any detectable anti-proliferative effect"},
      {"measurement": "anti-angiogenic activity, capillary tube formation", "setting": "HUVEC; 497C-T2 0.27-2 μM, 497C-T3 […], 497C-T4 3.18 μM, 497C-T5 3.35 μM, C-terminal tail 4.14 μM", "value": "inhibited in vitro angiogenesis in a dose-dependent manner"},
      {"measurement": "inhibition of in vitro angiogenesis", "setting": "HUVEC; at 270 nM", "value": "small inhibition"},
      {"measurement": "inhibition of in vitro angiogenesis", "setting": "HUVEC; at 540 nM", "value": "more than 50%"},
      {"measurement": "potency relative to anti-VEGF mAb and/or VEGF receptor (KDR)-based peptides", "setting": "HUVEC; comparison with literature (Binetruy-Tournaire 2000)", "value": "at least 200 fold"},
      {"measurement": "IC50", "setting": "HUVEC; dose-response study, read-out: IC50, inhibition of in vitro angiogenesis", "value": "< 540", "unit": "nM"}
    ]}
  ]
}
